This is an account of results in paper PMC12548662.

The target of the assay is Recombinant human α-centractin with an N-terminal His6 tag (human) (UniProt P61163).
Chain of UniProt P61163 (P61163 whole entry): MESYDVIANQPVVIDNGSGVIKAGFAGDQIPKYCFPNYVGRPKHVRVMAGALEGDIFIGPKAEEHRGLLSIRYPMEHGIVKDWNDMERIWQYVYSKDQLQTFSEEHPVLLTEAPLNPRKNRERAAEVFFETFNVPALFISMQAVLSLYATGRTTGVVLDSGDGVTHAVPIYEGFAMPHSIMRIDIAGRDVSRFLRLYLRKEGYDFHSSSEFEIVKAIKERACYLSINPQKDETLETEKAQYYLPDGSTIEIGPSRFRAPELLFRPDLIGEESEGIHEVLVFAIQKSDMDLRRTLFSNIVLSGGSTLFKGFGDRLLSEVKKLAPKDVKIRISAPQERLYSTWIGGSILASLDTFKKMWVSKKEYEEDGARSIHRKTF

B1: Recombinant His6-tagged human SETD3 (wild-type) (enzyme)
chain: MGKKSRVKTQKSGTGATATVSPKEILNLTSELLQKCSSPAPGPGKEWEEYVQIRTLVEKIRKKQKGLSVTFDGKREDYFPDLMKWASENGASVEGFEMVNFKEEGFGLRATRDIKAEELFLWVPRKLLMTVESAKNSVLGPLYSQDRILQAMGNIALAFHLLCERASPNSFWQPYIQTLPSEYDTPLYFEEDEVRYLQSTQAIHDVFSQYKNTARQYAYFYKVIQTHPHANKLPLKDSFTYEDYRWAVSSVMTRQNQIPTEDGSRVTLALIPLWDMCNHTNGLITTGYNLEDDRCECVALQDFRAGEQIYIFYGTRSNAEFVIHSGFFFDNNSHDRVKIKLGVSKSDRLYAMKAEVLARAGIPTSSVFALHFTEPPISAQLLAFLRVFCMTEEELKEHLLGDSAIDRIFTLGNSEFPVSWDNEVKLWTFLEDRASLLLKTYKTTIEEDKSVLKNHDLSVRAKMAIKLRLGEKEILEKAVKSAAVNREYYRQQMEEKAPLPKYEESNLGLLESSVGDSRLPLVLRNLEEEAGVQDALNIREAISKAKATENGLVNGENSIPNGTRSENESLNQESKRAVEDAKGSSSDSTAGVKE
As for B1, the KM of SETD3 for α-centractin (0.2–5 µM), radiochemical methyltransferase assay, 5 min at 37 °C with 1 µM [1H+3H]SAM came out at 3.83 µM.
